Experimental data as given in patent publication US7202329B2, “Tsg101-GAGp6 interaction and use thereof” (priority 2001, dated 2007).

Experiments:
[1] = molecular target: T1, interaction between GST-p6 and myc-Tsg101(1-207) (Homo sapiens, UniProt Q99816); assay: In vitro binding assay: competition of p6(1-14) with GST-p6 for myc-Tsg101(1-207)
T1 construct: Drosophila S2 cell lysate myc-tagged Tsg101 (residues 1–207); made in house; host or cells: Drosophila S2 cells (used as lysate)
T1 sequence (Q99816 1-207): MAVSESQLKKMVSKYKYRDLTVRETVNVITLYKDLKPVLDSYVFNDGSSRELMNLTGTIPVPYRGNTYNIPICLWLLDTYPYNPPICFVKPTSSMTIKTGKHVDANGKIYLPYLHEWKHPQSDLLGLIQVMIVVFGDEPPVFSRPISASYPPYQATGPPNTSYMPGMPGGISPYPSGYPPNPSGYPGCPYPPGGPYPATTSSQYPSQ
Procedure: A fusion protein with a GST tag fused to the HIV-1 GAGp6 domain was recombinantly expressed and purified by chromatography. In addition, a GAGp6 peptide containing the first 14 amino acid residues (“p6(1–14)”) was synthesized chemically by standard peptide synthesis methods. The peptide was purified by conventional protein purification techniques, e.g., by chromatography.
Nunc/Nalgene Maxisorp plates were incubated overnight at 4° C. or for 1–2 hrs at room temperature in 100 μl of a protein coupling solution containing purified GST-p6 and 50 mM Carbonate, pH=9.6. This allowed the attachment of the GST-p6 fusion protein to the plates. Liquids in the plates were then emptied and wells filled with 400 μl/well of a blocking buffer (SuperBlock; Pierce-Endogen, Rockford, Ill.). […]
Plates were then washed 4×100 μl with 1× PBST solution (Invitrogen; Carlsbad, Calif.). […] Plates were then read on a Packard Fusion instrument at an excitation wavelength of 325 nm and an emission wavelength of 420 nm. […]
Different concentrations of the p6(1–14) peptide were tested, and the relative intensities of the fluorescence signals obtained at different concentrations were plotted against the peptide concentrations. […]

[2] = molecular target: ROCK1 (Homo sapiens, UniProt Q13464); settings: cited from earlier work
[3] = molecular target: T2, Full length Tsg101 (Homo sapiens, UniProt Q99816); assay: Two-hybrid liquid culture β-galactosidase assay; format: cell-based; settings: p6 point mutants
T2 construct: expressed in transfected cells; host or cells: Saccharomyces cerevisiae strain Y189
T2 sequence (Q99816 1-390): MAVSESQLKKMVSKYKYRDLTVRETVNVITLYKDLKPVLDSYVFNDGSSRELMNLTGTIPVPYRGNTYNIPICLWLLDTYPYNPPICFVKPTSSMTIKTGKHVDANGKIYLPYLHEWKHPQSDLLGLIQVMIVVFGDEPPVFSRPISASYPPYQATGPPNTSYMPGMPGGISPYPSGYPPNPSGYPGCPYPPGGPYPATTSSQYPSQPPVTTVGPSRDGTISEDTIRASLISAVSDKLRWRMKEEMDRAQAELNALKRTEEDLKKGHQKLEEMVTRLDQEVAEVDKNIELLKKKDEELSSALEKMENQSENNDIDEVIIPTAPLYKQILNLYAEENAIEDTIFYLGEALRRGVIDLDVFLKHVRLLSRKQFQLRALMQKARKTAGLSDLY
Procedure: The interactions between Tsg101 and wild-type GAGp6 (WT) or the GAGp6 PTAP mutants were further quantitated by performing liquid culture β-galactosidase assays. Cultures were grown overnight in synthetic media (−Leu, −Trp, +glucose) in 96 well plates, normalized for optical density, and lysed by addition of 6× lysis/substrate solution in 6× Z-buffer (60 mM KCl, 6 mM MgSO4, 360 mM Na2HPO4, 240 mM NaH2PO4, 6 mg/ml CPRG, 0.12U/ml lyticase, 0.075% NP-40). Cultures were incubated for 2 hr at 37° C., clarified by centrifugation, and the optical absorbance of each supernatant was measured (575 nm). Full length Tsg101 bound wild-type p6 in the two-hybrid liquid culture assay, resulting in high levels of β-galactosidase activity (>300-fold over background). […] Each of these point mutations also arrests HIV-1 budding at a late stage (Huang et al. 1995).

[4] = molecular target: T3, Tsg101 (Homo sapiens, UniProt Q99816); assay: Yeast two-hybrid filter lift assay for β-Gal activity (Tsg101 / GAGp6 interaction); format: cell-based; parameters: key to Interactions Between Tsg101 and GAGp6 (β-Gal activity, filter lift): +: Positive β-Gal activity indicates that the GAGp6 wild type or mutant protein interacts with Tsg101; settings: for ability to bind Tsg101 protein (in words): yeast two-hybrid, GAGp6 point mutants
T3 construct: expressed in transfected cells; host or cells: Saccharomyces cerevisiae strain Y189
T3 sequence (Q99816 1-390): T2 sequence (Q99816 1-390)
Excerpt: Yeast two-hybrid assays were utilized to determine the effect of amino acid substitution mutations in the PTAP motif of HIV GAGp6 on the interaction between Tsg101 and GAGp6. To prepare a yeast two-hybrid activation domain-Tsg101 construct, a DNA fragment encompassing the full-length coding sequence for Tsg101 according to GenBank Accession No. U82130 was obtained by PCR from a human fetal brain cDNA library and cloned into the EcoRI/Pst1 sites of the activation domain parent plasmid GADpN2 (LEU2, CEN4, ARS1, ADH1p-SV40NLS-GAL4 (768–881)-MCS (multiple cloning site)-PGK1t, AmpR, ColE1_ori).
To prepare the yeast two-hybrid DNA binding domain-HIV1 GAGp6 construct, a DNA fragment corresponding to the HIV1 GAGp6 peptide derived from the HIV1.NL43 strain GAG protein was obtained by PCR from the NL43 containing plasmid R9≢apa and was cloned into the EcoRI/Sal1 sites of the binding domain parent plasmid pGBT.Q.
The following amino acid substitution mutations were introduced by PCR into the HIV1 GAGp6 sequence in the yeast two-hybrid binding domain-HIV1 GAGp6 construct described above. The mutations were verified by DNA sequence analysis.
To test the effect of the mutations, yeast cells of the strain Y189 purchased from Clontech (ura3-52 his3*200 ade2-101 trp1-901 leu2-3,112 met gal4 gal80 URA3::GAL1p-lacZ) were co-transformed with the activation domain-Tsg101 construct and one of the binding domain-mutant GAGp6 constructs or the binding domain-wild type GAGp6 construct. Filter lift assays for β-Gal activity were conducted by lifting the transformed yeast colonies with filters, lysing the yeast cells by freezing and thawing, and contacting the lysed cells with X-Gal. […] All binding domain constructs were also tested for self-activation of β-Gal activity.

Sequence of ROCK1 (Q13464 whole entry): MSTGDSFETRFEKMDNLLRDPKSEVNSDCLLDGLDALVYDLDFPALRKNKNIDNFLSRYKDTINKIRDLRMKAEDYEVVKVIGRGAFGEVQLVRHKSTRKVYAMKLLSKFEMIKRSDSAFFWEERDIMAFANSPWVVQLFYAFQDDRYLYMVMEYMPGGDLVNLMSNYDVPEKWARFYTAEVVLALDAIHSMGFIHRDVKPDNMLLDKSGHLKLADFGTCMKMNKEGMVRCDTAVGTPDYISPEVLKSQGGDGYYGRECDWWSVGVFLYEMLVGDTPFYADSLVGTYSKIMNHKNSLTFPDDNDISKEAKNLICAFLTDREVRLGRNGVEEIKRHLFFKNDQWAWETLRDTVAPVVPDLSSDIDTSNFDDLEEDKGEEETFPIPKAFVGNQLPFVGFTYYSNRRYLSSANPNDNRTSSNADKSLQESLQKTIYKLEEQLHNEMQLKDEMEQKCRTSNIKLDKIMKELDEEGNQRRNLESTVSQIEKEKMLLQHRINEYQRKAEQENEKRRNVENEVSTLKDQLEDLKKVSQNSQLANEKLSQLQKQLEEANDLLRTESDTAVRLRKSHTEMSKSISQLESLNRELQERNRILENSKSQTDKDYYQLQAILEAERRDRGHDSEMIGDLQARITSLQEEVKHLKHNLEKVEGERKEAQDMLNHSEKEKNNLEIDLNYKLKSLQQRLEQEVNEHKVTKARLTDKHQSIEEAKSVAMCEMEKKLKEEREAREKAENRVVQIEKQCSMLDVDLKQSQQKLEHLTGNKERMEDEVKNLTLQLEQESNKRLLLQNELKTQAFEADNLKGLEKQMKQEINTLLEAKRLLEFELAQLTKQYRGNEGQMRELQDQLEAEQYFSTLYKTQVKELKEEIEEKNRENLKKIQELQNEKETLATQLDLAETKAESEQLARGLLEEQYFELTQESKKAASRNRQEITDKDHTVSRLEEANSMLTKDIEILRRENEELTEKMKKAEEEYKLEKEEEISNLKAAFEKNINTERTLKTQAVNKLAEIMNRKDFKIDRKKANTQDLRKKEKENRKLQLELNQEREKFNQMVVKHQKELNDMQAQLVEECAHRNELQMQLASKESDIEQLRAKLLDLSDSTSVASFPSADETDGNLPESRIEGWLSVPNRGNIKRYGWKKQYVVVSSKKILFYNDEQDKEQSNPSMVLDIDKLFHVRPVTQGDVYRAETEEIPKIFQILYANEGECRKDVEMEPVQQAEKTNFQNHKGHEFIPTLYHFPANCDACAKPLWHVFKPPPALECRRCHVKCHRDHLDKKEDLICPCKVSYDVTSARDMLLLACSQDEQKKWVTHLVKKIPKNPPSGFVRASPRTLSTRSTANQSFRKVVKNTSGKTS

Compound | β-galactosidase activity (in words) [3] | ability to bind Tsg101 protein (in words) [4] | also measured
p6(1-14): chemically synthesized GAGp6 peptide containing the first 14 amino acid residues, includes the PTAP late domain motif (LQSRPEPTAPPEES) |  |  | inhibition of protein-protein interaction between GST-p6 and myc-Tsg101(1-207) ([1]; competitive inhibition curve, FIG. 2): capable of inhibiting; binding to the N-terminal portion of Tsg101 (amino acid residues 1–207) ([1]; includes the Tsg101 UEV domain): sufficient in binding
C[C@@H](N)[C@H]1CC[C@H](C(=O)Nc2ccncc2)CC1 [Y-27632, (+)-(R)-trans-4-(1-aminoethyl)-N-(4-pyridyl) cyclohexanecarboxamide] |  |  | selectivity for ROCK1 [2]: highly selective for ROCK1
P6/P7L (LQSRPELTAPPEESFRFGEETTTPSQKQEPIDKELYPLASLRSLFGSDPSSQ; left off: large carriers; small tags and cut ends) | reduced β-galactosidase activity to background levels | abolishes the GAGp6 binding affinity to Tsg101 | 
P6/P10L (LQSRPEPTALPEESFRFGEETTTPSQKQEPIDKELYPLASLRSLFGSDPSSQ; left off: large carriers; small tags and cut ends) | reduced β-galactosidase activity to background levels | abolishes the GAGp6 binding affinity to Tsg101 | 
P6/E6G (LQSRPGPTAPPEESFRFGEETTTPSQKQEPIDKELYPLASLRSLFGSDPSSQ; left off: large carriers; small tags and cut ends) |  | did not result in the elimination of the Tsg101-GAGp6 interaction | Interactions Between Tsg101 and GAGp6 (β-Gal activity, filter lift) ([4]; yeast strain Y189 co-transformed with activation domain-Tsg101 construct and binding domain-GAGp6 construct): +; ability to bind Tsg101 protein (in words) ([4]; listed as E6G GAGp6 mutant): capable of binding Tsg101 protein
P6/A9R (LQSRPEPTRPPEESFRFGEETTTPSQKQEPIDKELYPLASLRSLFGSDPSSQ; left off: large carriers; small tags and cut ends) | reduced β-galactosidase activity to background levels | abolishes the GAGp6 binding affinity to Tsg101 | 
